Legend:
[1] = test system: methionine N^α -acetyltransferase (M-N^α -AT); assay: Relative activity of M-N^α -AT for N^α -acetylation of synthetic peptides; assay type: biochemical, Saccharomyces cerevisiae; set-up: tested at 50 µM; settings: Table 7, influence of the penultimate amino terminal residue
Protocol: (§1) N^α -acetylt[…] was determined as previously described [Lee et al., J. Biol. Chem. 263:14948-14955 (1988)]. Aliquots of the lysate or chromatographic fractions were added to 1.5 ml Eppendorf tubes containing a reaction mixture of 50 mM HEPES, pH 7.4, 150 mM KCl, 1 mM DTT, 25 μM [^3 H] acetyl coenzyme A (0.5 μCi) and 50 μM synthetic peptide with an adjusted final volume of 100 μl. The assay mixture was incubated at 30° C. for 30 min. The reaction was stopped by adding 17 μl of 0.5M acetic acid and chilled in an ice bath. The reaction samples were filtered through SP membrane discs (Cuno) (previously pre-swollen in 0.5M acetic acid), and then washed three times with 1 ml of 0.5M acetic acid on a Millipore 1225 sampling manifold. The partially dried membranes were placed in scintillation cocktail and counted with a Beckman LS 3801 scintillation counter. One unit of activity was defined as the amount of enzyme able to transfer 1 pmol of [^3 H] acetyl group from [^3 H] acetyl coenzyme A to synthetic peptide per min under standard enzyme assay conditions defined above.
(§2) In order to compare the relative specificity and activity of the methionine N^α -acetylt[…] (M-N^α -AT) of the present invention with the specificity and activity of the AAA1 N^α -acetyltransferase (N^α -AT) of Lee, F.-J. S., et al., J. Bacteriol. 171, (1989), U.S. Patent Application of John A. Smith, and Fang-Jen S. Lee, filed Oct. 25, 1989, entitled "ISOLATION OF STRAINS OF SAC[…] ALTERED N^α -ACETYLT[…]" (which references have been incorporated herein by reference) synthetic peptides were prepared. These peptides were assessed for their ability to serve as substrates for the two enzymes. In Table 6, the effect of the amino terminal amino acid on activity is investigated; in Table 7, the effect of the penultimate amino terminal amino acid on activity is investigated.

[2] = target: T1, AAA1 N^α -acetyltransferase (N^α -AT) (Saccharomyces cerevisiae, UniProt P07347+P12945); assay: Relative activity of N^α -AT for N^α -acetylation of synthetic peptides; assay type: biochemical
T1 sequence (P12945 2-854 limits assumed): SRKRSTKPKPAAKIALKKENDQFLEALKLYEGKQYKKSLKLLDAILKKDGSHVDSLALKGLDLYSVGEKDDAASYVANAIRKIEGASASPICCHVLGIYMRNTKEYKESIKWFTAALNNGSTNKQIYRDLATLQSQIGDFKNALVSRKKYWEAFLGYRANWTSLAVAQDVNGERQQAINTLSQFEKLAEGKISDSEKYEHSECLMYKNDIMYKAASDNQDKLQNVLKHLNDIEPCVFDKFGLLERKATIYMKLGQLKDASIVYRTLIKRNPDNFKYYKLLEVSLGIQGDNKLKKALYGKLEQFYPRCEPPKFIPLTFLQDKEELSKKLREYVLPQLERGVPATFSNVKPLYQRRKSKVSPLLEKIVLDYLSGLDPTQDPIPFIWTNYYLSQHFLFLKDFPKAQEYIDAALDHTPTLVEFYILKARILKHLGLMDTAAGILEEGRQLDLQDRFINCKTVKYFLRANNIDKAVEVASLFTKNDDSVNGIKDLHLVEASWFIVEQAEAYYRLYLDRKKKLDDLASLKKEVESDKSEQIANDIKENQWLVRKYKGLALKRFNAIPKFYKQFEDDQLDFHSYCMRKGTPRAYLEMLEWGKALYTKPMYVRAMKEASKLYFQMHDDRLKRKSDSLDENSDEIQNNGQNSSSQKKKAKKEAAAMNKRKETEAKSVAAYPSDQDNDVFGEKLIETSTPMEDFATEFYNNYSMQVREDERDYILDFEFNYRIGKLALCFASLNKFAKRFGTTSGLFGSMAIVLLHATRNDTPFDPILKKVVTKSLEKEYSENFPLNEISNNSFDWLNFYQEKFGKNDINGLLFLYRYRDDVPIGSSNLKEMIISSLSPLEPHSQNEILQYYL
T1 sequence (P07347 1-238): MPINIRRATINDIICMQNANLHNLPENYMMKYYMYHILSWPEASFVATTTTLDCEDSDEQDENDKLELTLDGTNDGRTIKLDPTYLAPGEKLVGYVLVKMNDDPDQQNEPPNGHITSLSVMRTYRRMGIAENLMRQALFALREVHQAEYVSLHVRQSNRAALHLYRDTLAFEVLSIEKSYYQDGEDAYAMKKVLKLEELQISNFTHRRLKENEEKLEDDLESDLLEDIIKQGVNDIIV
Protocol: as §1, §2

[3] = Table 6, influence of the amino terminal residue
[4] = Table 7, influence of the penultimate amino terminal residue

Substance: SYSMEHFRWGKPVGKKRRPVKVYP
- Activity (%) (mean activity ± S.D.) M-N^a -AT [1]: 0%
- Activity (%) (mean activity ± S.D.) N^a -AT [2, 3]: 100 ± 5%
- Activity (%) (mean activity ± S.D.) N^a -AT [2, 4]: 100 ± 5%

Substance: SIPETQKGVIFYESHGKLEYKDIP (SIPETQKGVIFYESHGKLEYKDIP) [Alcohol dehydrogenase (1-24) (Yeast)]
- Activity (%) (mean activity ± S.D.) M-N^a -AT [1]: 0%
- Activity (%) (mean activity ± S.D.) N^a -AT [2, 3]: 102 ± 5%
- Activity (%) (mean activity ± S.D.) N^a -AT [2, 4]: 102 ± 5%

— patent publication US5223421A, “Identification of methionine Nα-acetyltransferase” (The General Hospital Corporation, priority 1990, dated 1993)
